# In patent publication US20260250418A1 (BIOCYTOGEN PHARMACEUTICALS BEIJING, published 2026):
# How the values were obtained:
# Assay in all cases: flow cytometry, transfected CHO cells
# [1] = molecular target: T1, monkey (Macaca fascicularis) HER3 on CHO-fasHER3 cells (monkey (Macaca fascicularis), UniProt P21860 20-643 (human entry))
# T1 construct: CHO-S cells transfected with fasHER3
# T1 chain: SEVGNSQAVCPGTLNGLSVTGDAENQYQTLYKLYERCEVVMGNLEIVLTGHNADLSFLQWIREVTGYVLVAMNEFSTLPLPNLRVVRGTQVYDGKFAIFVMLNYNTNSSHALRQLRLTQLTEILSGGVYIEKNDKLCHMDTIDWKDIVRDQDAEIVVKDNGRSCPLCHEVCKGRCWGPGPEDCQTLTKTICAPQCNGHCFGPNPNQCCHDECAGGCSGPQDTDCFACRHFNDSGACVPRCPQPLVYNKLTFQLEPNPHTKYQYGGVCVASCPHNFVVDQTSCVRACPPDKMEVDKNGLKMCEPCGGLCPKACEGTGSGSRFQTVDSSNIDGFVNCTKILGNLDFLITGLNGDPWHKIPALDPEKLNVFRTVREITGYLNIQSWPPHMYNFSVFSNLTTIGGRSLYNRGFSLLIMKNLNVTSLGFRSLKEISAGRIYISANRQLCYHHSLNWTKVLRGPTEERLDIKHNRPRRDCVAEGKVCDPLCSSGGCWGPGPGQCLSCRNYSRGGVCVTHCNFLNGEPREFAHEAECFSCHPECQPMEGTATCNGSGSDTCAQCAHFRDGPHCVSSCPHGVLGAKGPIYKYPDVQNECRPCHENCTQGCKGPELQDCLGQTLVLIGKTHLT
# Protocol: (§1) CHO-hHER3 cells, CHO-mHER3 cells, CHO-fasHER3 cells or CHO-dHER3 cells were transferred to a 96-well plate at a density of 5×10⁴ cells/well respectively. The anti-HER3 antibodies were added to the 96-well plate, and incubated at 4° C. for 30 min.
# [2] = molecular target: T2, dog HER3 on CHO-dHER3 cells (dog, UniProt P21860 20-1342 (human entry))
# T2 construct: CHO-S cells transfected with dHER3
# T2 chain: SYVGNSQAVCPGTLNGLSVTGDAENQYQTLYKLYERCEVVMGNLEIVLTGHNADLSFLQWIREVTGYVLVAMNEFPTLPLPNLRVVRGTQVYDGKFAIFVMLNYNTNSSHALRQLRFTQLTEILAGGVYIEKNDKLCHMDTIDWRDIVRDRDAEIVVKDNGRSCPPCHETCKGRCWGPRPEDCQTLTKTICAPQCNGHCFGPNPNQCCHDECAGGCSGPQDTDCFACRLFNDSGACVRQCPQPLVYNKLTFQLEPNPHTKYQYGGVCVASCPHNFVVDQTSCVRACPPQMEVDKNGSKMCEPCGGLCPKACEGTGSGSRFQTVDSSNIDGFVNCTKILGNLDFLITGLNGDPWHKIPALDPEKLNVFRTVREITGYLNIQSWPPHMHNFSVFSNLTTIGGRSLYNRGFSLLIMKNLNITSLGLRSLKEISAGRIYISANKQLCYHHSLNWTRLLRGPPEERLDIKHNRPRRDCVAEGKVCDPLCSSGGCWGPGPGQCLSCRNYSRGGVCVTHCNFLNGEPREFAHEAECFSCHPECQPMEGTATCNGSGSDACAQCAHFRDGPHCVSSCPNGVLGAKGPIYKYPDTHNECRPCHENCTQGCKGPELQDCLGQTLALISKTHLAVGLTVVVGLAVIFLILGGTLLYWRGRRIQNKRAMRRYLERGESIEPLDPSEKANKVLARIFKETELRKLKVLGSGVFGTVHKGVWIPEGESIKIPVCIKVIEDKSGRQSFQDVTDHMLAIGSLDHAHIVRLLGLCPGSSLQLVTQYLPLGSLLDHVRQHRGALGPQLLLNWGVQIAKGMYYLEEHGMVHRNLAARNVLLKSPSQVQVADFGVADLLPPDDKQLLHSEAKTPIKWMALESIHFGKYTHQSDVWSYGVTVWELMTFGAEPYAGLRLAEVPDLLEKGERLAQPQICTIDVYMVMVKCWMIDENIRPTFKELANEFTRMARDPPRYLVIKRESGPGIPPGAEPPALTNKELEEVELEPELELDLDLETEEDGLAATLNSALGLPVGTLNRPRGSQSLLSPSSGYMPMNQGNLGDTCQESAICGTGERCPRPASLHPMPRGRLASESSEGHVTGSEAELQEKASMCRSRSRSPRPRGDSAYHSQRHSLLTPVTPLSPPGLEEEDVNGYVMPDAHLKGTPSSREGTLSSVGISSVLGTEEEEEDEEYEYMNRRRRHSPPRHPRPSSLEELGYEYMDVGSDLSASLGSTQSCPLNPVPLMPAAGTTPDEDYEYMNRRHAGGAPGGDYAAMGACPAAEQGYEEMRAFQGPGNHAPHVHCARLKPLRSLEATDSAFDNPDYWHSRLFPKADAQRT
# Protocol: as §1
# [3] = molecular target: T3, mouse HER3 on CHO-mHER3 cells (mouse, UniProt Q61526 20-641)
# T3 construct: CHO-S cells transfected with mHER3
# Protocol: as §1
# [4] = molecular target: T4, human HER3 on CHO-hHER3 cells (human, UniProt P21860 20-643)
# T4 construct: CHO-S cells transfected with hHER3
# Protocol: as §1
# T3 sequence (Q61526 20-641): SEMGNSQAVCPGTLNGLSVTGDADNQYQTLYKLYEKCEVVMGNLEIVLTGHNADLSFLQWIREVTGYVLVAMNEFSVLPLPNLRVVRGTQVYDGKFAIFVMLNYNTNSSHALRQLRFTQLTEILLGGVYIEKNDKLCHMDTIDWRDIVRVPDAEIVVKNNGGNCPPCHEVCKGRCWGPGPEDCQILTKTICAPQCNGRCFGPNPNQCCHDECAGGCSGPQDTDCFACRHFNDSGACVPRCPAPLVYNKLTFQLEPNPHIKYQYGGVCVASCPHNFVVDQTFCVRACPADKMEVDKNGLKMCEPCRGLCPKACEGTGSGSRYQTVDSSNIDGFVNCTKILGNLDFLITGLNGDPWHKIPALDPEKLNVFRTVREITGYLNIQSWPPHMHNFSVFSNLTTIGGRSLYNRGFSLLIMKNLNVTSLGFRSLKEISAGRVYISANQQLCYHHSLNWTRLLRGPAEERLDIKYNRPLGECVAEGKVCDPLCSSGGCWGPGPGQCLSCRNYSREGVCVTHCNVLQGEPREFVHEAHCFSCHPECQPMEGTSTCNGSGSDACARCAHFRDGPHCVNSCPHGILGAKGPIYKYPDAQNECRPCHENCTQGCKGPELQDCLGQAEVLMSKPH
Binder,Percentage of Positive Cells [1],Percentage of Positive Cells [2],Percentage of Positive Cells [3],binding result [3],Percentage of Positive Cells [4]
"anti-HER3 antibody 3G6 (antibody, V domains shown, common light chain) VH: QVQLVQSGPVLVKPTETLTLTCTVSGFSLSNIRMGVSWIRQPPGKALEWLAHIFSNDDKSYSTSLKSRLTISKDTSKSQVVLTMTNVDPVDTATYYCTRMRYSGGPFDYWGQGTLVTVSS VL: not shown",65.6%,29.8%,15.2%,,66.5%
"anti-HER3 antibody 1B2 (antibody, V domains shown, common light chain) VH: QVQLVQSGPVLVKPTETLTLTCTVSTFSLSNARMGVSWIRQPPGKALEWLAHIFSNDDKSYSPSLKSRLTISKDTSKTQVVLTMTNMDPVDTATYYCSRMRYSGGPFDYWGQGSLVTVSS VL: not shown",69%,32.1%,22.4%,,71.3%

# More lines, now with the values ahead:
Percentage of Positive Cells [1],Percentage of Positive Cells [2],Percentage of Positive Cells [3],binding result [3],Percentage of Positive Cells [4],Binder
72.8%,33.1%,3.4%,no binding,74%,"anti-HER3 antibody 1C5 (antibody, V domains shown, common light chain) VH: QVQLVESGGGVVQPGKSLRLSCAASGFTFSRSGMHWVRQAPGKGLEWVALISFDGSNKYYADSVKGRFTISRDNSKNTLNLQMNSLRAEDTAVYYCAKGGFGVVIYDAFDIWGHGTMVTVSS VL: not shown"
69.4%,13.2%,23%,,70.6%,"anti-HER3 antibody 3E1 (antibody, V domains shown, common light chain) VH: EVQLVQSGPVLAKPTETLTLTCTVSGFSLSNIRMGVSWIRQPPGKALEWLAHIFSNDDKSYSPSLKNRLTISKDTSKSQVVLTMTTMDPMDTATYYCTRMKYSGGPFDYWGQGTLVTVSS VL: not shown"
